Data on 5 molecules can be found in article PMC10214136 (Proceedings of the National Academy of Sciences of the …, 2023).

Read-outs that look alike come from different tables or passages of the source.

The target in data set [1] is FtsEX complex (Pseudomonas aeruginosa), wild type, in peptidiscs (Pseudomonas aeruginosa). Briefly: cryo-EM structure.
Data set [2] deals with FtsE^E163QX–EnvC complex (Pseudomonas aeruginosa) (Pseudomonas aeruginosa). Briefly: cryo-EM structure.
Substrate in the data set “purified protein”: Nc1ncnc2c1ncn2[C@@H]1O[C@H](COP(=O)(O)OP(=O)(O)OP(=O)(O)O)[C@@H](O)[C@H]1O
Briefly: purified protein. The following applies: ATP/MgCl2, pH 7.5, 37 °C, FtsEX in peptidiscs with EnvC.

Data set [3] concerns the molecule itself. Description: cryo-EM structure.
For data set [4], the target named is T1, FtsE (Pseudomonas aeruginosa), wild type (Pseudomonas aeruginosa, UniProt A0A069QBX1 1-223).
T1 sequence: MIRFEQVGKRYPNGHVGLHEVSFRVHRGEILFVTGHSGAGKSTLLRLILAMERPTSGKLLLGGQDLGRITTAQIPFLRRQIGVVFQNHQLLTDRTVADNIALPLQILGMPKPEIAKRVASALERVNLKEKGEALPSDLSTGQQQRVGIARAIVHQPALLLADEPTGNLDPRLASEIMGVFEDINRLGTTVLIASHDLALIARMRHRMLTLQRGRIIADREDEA
Description: co-purification.

Data set [5] deals with the molecule itself. Description: cryo-EM structure. The source holds these as a separate data set.

“EnvC (Pseudomonas aeruginosa), envC^Δ19 construct, wild type (natural protein)” showed a stoichiometry N (EnvC per FtsE2-FtsX2 complex) in data set [1] of 1.

B1: AmiB (Pseudomonas aeruginosa), amiB^Δ29 construct (enzyme)
chain: SLLQAHLSHRSALRSRFRFDPAAVMDCLRAEVLGQDPALQAVEDMLKVVRADIADPRRPLFSALFLGPTGVGKTEIVRALARALHGDAEGFCRVDMNTLSQEHYAAALTGAPPGYVGAKEGTTLLEQDKLDGSPGRPGIVLFDELEKASPEVVHALLNVLDNGLLRVASGERTYHFRNTLVFMTSNLCAHEIQRYDERRQRLPWRLLPVGGERRRRDIDGMVRARLLKTFSPEFVNRLDSVVTFNWIERDVVARLVELEVQRLNRRLEKHRCRLEATPEVLAKIARAGFDRQFGARALRRSVRHHLEVPLAEHLLDHHQPGDGNCTTYLASLEHERVRFVRR
For the molecule B1, the stoichiometry N (AmiB per FtsE2-FtsX2-EnvC complex) in data set [2] came to 1.

B2: FtsEX/EnvC (FtsEX–EnvC complex) (Pseudomonas aeruginosa PAO1) (protein)
chain: MIRFEQVGKRYPNGHVGLHEVSFRVHRGEILFVTGHSGAGKSTLLRLILAMERPTSGKLLLGGQDLGRITTAQIPFLRRQIGVVFQNHQLLTDRTVADNIALPLQILGMPKPEIAKRVASALERVNLKEKGEALPSDLSTGQQQRVGIARAIVHQPALLLADEPTGNLDPRLASEIMGVFEDINRLGTTVLIASHDLALIARMRHRMLTLQRGRIIADREDEA
As a reminder, the Km is the concentration of substrate that gives half-maximal velocity. Take B2: the Km in “purified protein” came to 230 µM.

B3: FtsE^E163Q (Pseudomonas aeruginosa) (natural protein)
chain: MIRFEQVGKRYPNGHVGLHEVSFRVHRGEILFVTGHSGAGKSTLLRLILAMERPTSGKLLLGGQDLGRITTAQIPFLRRQIGVVFQNHQLLTDRTVADNIALPLQILGMPKPEIAKRVASALERVNLKEKGEALPSDLSTGQQQRVGIARAIVHQPALLLADQPTGNLDPRLASEIMGVFEDINRLGTTVLIASHDLALIARMRHRMLTLQRGRIIADREDEA
As usually defined, the stoichiometry N is a count of units in the complex or per binding partner. For the molecule B3, the “stoichiometry N” value in “cryo-EM structure [3]” amounted to 2.

B4: FtsX (Pseudomonas aeruginosa) (natural protein)
chain: MSANDLPRGPEEGAPERKTREKPSQEQTDWSGSFSAYLESHRASLVDSLRRLFGHPFGSFFTCLVMGITLSLPMGLSLLLNNVERLGGSWQRAAQISLFLDLKTSENQGQDLREQIERLPDVIEAQLISREQALSELQEQSGLGEALKELPENPLPPVISVTPKQIDRAGLEALRQQLAELPHVQQAQLDLVWVERLSAILKLGERFVFGLTILLVLTLLLVVGNTIRLHIENRRNEIEVIKLVGGTDGYVRRPFLYMGALYGLGAGILSWALLAYSLNWLNGSVVNLSGLYGSDFGLQGVPLDDGLSLTVGAVLLGWVGAWLAVARHLRELAPR
Take B4: the “stoichiometry N” value is 1 FtsE:FtsX molar ratio in data set [4] and 2 in “cryo-EM structure [5]”.
